Results published in publication doi:10.1101/2022.01.19.477021, “The Intrinsically Disordered Region of Coronins Fine-tunes Oligomerization and Actin Polymerization” (bioRxiv, 2022).
Values joined by “and” are separate entries in the source; they are usually repeats but may differ in a detail not shown here. Identical values can stand only once.

Legend:
[1] = target: the molecule itself; experiment: AUC; sedimentation velocity; 50 mM Tris pH 8.0, 150 mM NaCl, 20 °C, 30,000 or 45,000 rpm; c(s) and c(s,ff0) models in SEDFIT; samples at 3-9.2 µM
[2] = target: rabbit skeletal muscle actin (RMA), filamentous (F-actin) (rabbit, UniProt P68135 1-377); experiment: co-sedimentation; high-speed actin cosedimentation: a range of concentrations of Crn1 variant with a fixed concentration of pre-polymerized actin filaments in F-buffer, room temperature 30 min, 100,000 x g 20 min at 25°C; bound against free coronin fitted with the Hill equation; details: both partners purified
[3] = target: the molecule itself; experiment: SEC + other: negative-stain transmission electron microscopy; Superdex 200 increase 10/30 column in a pH 8 Tris-buffer with 150 mM NaCl; TEM of 1 µM protein in F-buffer

| Kd [2] | Binder | stoichiometry N [1] | binding result [3] |
| --- | --- | --- | --- |
| – | Crn1ΔIDR-S (Crn1 with a short 40-aa middle fragment of the IDR) (natural protein, S. cerevisiae, UniProt Q06440 1-651, looked up, Crn1 (coronin), S. cerevisiae, residues 1-651 with 401-483 and 524-601 excluded by a two-step truncation of the full-length plasmid; short IDR 484-523 kept; By the stated limits residues 602-604 of the IDR stay in the construct; source: E. coli Rosetta (DE3), purified (HisTrap, SEC when necessary)) MSGKFVRASKYRHVFGQAAKKELQYEKLKVTNNAWDSNLLKTNGKFIAVNWNASGGGAFAVIPIEEVGKAPDQVPLFRGHTAQVLDTDFDPFNDHRIASGSDDSKIGIWDIPENYKFHDHVDEDGEPIDIKPVKFLTGHARKVGHVLYHPVAENVLASSSGDYTVKLWNVETGKDMITLKHPDMVTSMSFSYDGNYLATVARDKKLRVWNIREEKIVSEGPAHTGAKNQRVVWLGNSDRLATTGFSKLSDRQIGIWDAFNIEKGDLGGFYTVDQSSGILMPFYDEGNKILYLVGKGDGNIRYYEFQNDELFELSEFQSTEAQRGFAVAPKRMVNVKENEVLKGFKTVVDQRIEPVSFFVPRRSEEFQEDIYPDAPSNKPALTAEEWFSGKSVEGPILVSMSSDIDQVNNAEDPSRDTSGWEEADDEPAPIKIETPVTPTEPKSLGLKKSVEKLSTLVLQLEDVVDKLTKANLDKDERLLKLEQKIGELSK | 3 and 6 | – |
| 240 nM | Crn1 full-length (Crn1-FL), recombinant from E. coli (natural protein, S. cerevisiae, UniProt Q06440 1-651, looked up, Crn1 (coronin), S. cerevisiae, residues 1-651; Vector pET-21d(+)(pSY5) adds an 8x histidine tag and an HRV 3C protease site at the N-terminus; cleavage is not described; By AUC-SV a mix of monomers and tetramers; also called WT Crn1; source: E. coli Rosetta (DE3), purified (HisTrap, SEC when necessary)) MSGKFVRASKYRHVFGQAAKKELQYEKLKVTNNAWDSNLLKTNGKFIAVNWNASGGGAFAVIPIEEVGKAPDQVPLFRGHTAQVLDTDFDPFNDHRIASGSDDSKIGIWDIPENYKFHDHVDEDGEPIDIKPVKFLTGHARKVGHVLYHPVAENVLASSSGDYTVKLWNVETGKDMITLKHPDMVTSMSFSYDGNYLATVARDKKLRVWNIREEKIVSEGPAHTGAKNQRVVWLGNSDRLATTGFSKLSDRQIGIWDAFNIEKGDLGGFYTVDQSSGILMPFYDEGNKILYLVGKGDGNIRYYEFQNDELFELSEFQSTEAQRGFAVAPKRMVNVKENEVLKGFKTVVDQRIEPVSFFVPRRSEEFQEDIYPDAPSNKPALTAEEWFSGKSVEGPILVSMRSIYDGSAPSFHEAKRPQQPTTQETALEEKKEQPKVEKPISESEKEVKQEAPKSPSPLKSASSSSTINHVLKEDNSINKLLKKSSDIDQVNNAEDPSRDTSGWEEADDEPAPIKIETPVTPTETKKDRTPKVEPSKELKPEPVSIATDRKQEQSLPQEEKSSEKTKSPEQEKSATPPSSITAAKTAITASSKEEPSAARTSPKSLGLKKSVEKLSTLVLQLEDVVDKLTKANLDKDERLLKLEQKIGELSK | 4 | – |
| – | yeast purified full-length Crn1 (yCrn1-FL) (natural protein, S. cerevisiae, UniProt Q06440 1-651, looked up, Crn1 (coronin), S. cerevisiae, full length; The text says C-terminal 6xHis-tagged, but names the vector as pGAL-ORF-3×StreptagII-9×His; source: S. cerevisiae (strain YMY2043, galactose-induced overexpression), purified (HisTrap)) MSGKFVRASKYRHVFGQAAKKELQYEKLKVTNNAWDSNLLKTNGKFIAVNWNASGGGAFAVIPIEEVGKAPDQVPLFRGHTAQVLDTDFDPFNDHRIASGSDDSKIGIWDIPENYKFHDHVDEDGEPIDIKPVKFLTGHARKVGHVLYHPVAENVLASSSGDYTVKLWNVETGKDMITLKHPDMVTSMSFSYDGNYLATVARDKKLRVWNIREEKIVSEGPAHTGAKNQRVVWLGNSDRLATTGFSKLSDRQIGIWDAFNIEKGDLGGFYTVDQSSGILMPFYDEGNKILYLVGKGDGNIRYYEFQNDELFELSEFQSTEAQRGFAVAPKRMVNVKENEVLKGFKTVVDQRIEPVSFFVPRRSEEFQEDIYPDAPSNKPALTAEEWFSGKSVEGPILVSMRSIYDGSAPSFHEAKRPQQPTTQETALEEKKEQPKVEKPISESEKEVKQEAPKSPSPLKSASSSSTINHVLKEDNSINKLLKKSSDIDQVNNAEDPSRDTSGWEEADDEPAPIKIETPVTPTETKKDRTPKVEPSKELKPEPVSIATDRKQEQSLPQEEKSSEKTKSPEQEKSATPPSSITAAKTAITASSKEEPSAARTSPKSLGLKKSVEKLSTLVLQLEDVVDKLTKANLDKDERLLKLEQKIGELSK | 4 and 6 | – |
| – | Crn1-ΔN (IDR and CC domains, aa 401-651) (domain or fragment, S. cerevisiae, UniProt Q06440 401-651, looked up, Crn1 (coronin), S. cerevisiae, residues 401-651 (IDR and CC domain); source: E. coli Rosetta (DE3), purified (HisTrap, SEC when necessary)) RSIYDGSAPSFHEAKRPQQPTTQETALEEKKEQPKVEKPISESEKEVKQEAPKSPSPLKSASSSSTINHVLKEDNSINKLLKKSSDIDQVNNAEDPSRDTSGWEEADDEPAPIKIETPVTPTETKKDRTPKVEPSKELKPEPVSIATDRKQEQSLPQEEKSSEKTKSPEQEKSATPPSSITAAKTAITASSKEEPSAARTSPKSLGLKKSVEKLSTLVLQLEDVVDKLTKANLDKDERLLKLEQKIGELSK | 4 | – |
| – | LGLKKSVEKLSTLVLQLEDVVDKLTKANLDKDERLLKLEQKIGELSK (domain or fragment, S. cerevisiae, UniProt Q06440 605-651, looked up, Crn1 (coronin), S. cerevisiae, residues 605-651, coiled-coil domain; made by truncating 401-604 from the Crn1-ΔN (401-651) plasmid; The introduction gives the CC domain as aa 600-651; also called CC domain; source: E. coli Rosetta (DE3), purified (HisTrap, SEC when necessary)) [Crn1-CC (C-terminal coiled-coil domain, aa 605-651)] | ~15 | – |
| – | Crn1-ΔIDR (Crn1 lacking the IDR, aa 401-604) (natural protein, S. cerevisiae, UniProt Q06440 1-651, looked up, Crn1 (coronin), S. cerevisiae, residues 1-651 with the IDR (401-604) deleted; made from the pSY5-Crn1-FL plasmid; source: E. coli Rosetta (DE3), purified (HisTrap, SEC when necessary)) MSGKFVRASKYRHVFGQAAKKELQYEKLKVTNNAWDSNLLKTNGKFIAVNWNASGGGAFAVIPIEEVGKAPDQVPLFRGHTAQVLDTDFDPFNDHRIASGSDDSKIGIWDIPENYKFHDHVDEDGEPIDIKPVKFLTGHARKVGHVLYHPVAENVLASSSGDYTVKLWNVETGKDMITLKHPDMVTSMSFSYDGNYLATVARDKKLRVWNIREEKIVSEGPAHTGAKNQRVVWLGNSDRLATTGFSKLSDRQIGIWDAFNIEKGDLGGFYTVDQSSGILMPFYDEGNKILYLVGKGDGNIRYYEFQNDELFELSEFQSTEAQRGFAVAPKRMVNVKENEVLKGFKTVVDQRIEPVSFFVPRRSEEFQEDIYPDAPSNKPALTAEEWFSGKSVEGPILVSMLGLKKSVEKLSTLVLQLEDVVDKLTKANLDKDERLLKLEQKIGELSK | – | binds |
